We go through four molecules from patent US20240376185A1 (SMIVET B V, published 2024).

Like-named read-outs stand apart in the source and are kept apart here.

For assay [1], the target named is T1, tetanus neurotoxin (TeNT), authentic tetanus holotoxin (Clostridium tetani, UniProt P04958 2-1315). The assay can be described thus: competition ELISA on TeNT, binder biotinylated; competitor mAb 11n185.
Target sequence in this assay (P04958 2-457 limits assumed, chain 1 of 2): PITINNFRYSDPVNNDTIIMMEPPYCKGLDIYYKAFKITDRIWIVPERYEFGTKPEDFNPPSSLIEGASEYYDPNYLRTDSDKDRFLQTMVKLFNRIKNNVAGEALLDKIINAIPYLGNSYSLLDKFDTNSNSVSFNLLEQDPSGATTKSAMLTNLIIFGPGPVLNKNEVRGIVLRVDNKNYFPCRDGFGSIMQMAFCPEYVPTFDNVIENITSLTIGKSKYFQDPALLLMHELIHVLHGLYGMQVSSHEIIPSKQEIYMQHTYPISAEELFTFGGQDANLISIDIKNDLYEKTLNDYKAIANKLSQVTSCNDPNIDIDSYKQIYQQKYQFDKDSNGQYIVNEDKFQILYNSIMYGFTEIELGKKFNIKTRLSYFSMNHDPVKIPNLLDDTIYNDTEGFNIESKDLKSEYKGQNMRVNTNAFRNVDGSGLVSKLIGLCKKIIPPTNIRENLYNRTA
Target sequence in this assay (P04958 458-1315 limits assumed, chain 2 of 2): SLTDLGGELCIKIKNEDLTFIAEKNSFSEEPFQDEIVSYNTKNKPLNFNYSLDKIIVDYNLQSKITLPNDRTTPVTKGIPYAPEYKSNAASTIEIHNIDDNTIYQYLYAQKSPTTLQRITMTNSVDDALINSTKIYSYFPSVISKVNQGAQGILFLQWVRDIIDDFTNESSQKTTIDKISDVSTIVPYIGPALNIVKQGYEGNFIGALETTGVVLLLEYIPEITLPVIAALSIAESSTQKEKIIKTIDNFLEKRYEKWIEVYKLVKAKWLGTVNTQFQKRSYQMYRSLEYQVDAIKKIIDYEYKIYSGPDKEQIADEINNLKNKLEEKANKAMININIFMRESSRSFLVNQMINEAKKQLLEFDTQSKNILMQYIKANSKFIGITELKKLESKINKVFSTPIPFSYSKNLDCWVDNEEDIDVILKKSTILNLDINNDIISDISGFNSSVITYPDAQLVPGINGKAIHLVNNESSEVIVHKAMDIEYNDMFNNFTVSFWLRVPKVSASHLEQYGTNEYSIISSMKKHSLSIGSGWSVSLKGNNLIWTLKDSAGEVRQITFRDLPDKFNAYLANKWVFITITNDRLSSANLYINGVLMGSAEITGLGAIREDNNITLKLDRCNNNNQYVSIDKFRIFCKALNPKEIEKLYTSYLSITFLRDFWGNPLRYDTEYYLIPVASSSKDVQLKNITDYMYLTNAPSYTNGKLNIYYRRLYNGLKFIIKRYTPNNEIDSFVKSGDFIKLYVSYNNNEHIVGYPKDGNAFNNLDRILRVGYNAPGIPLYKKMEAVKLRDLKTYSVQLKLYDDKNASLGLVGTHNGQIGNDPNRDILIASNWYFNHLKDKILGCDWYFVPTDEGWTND
Assay [2] addresses T1, tetanus neurotoxin (TeNT), authentic …. Kind of assay: competition ELISA on TeNT, binder biotinylated; competitor mAb 6F57. For orientation: In an ELISA, binding on a coated surface is turned into a signal by an enzyme label.
Target sequence in this assay (P04958 2-457 limits assumed, chain 1 of 2): as the sequence (P04958 2-457 limits assumed, chain 1 of 2) above
Target sequence in this assay (P04958 458-1315 limits assumed, chain 2 of 2): as the sequence (P04958 458-1315 limits assumed, chain 2 of 2) above
For assay [3] the target is unchanged. The assay can be described thus: GT1b-TeNT inhibition ELISA, EC at A450 0.59.
Target sequence in this assay (P04958 2-457 limits assumed, chain 1 of 2): as the sequence (P04958 2-457 limits assumed, chain 1 of 2) above
Target sequence in this assay (P04958 458-1315 limits assumed, chain 2 of 2): as the sequence (P04958 458-1315 limits assumed, chain 2 of 2) above
The target is the same in assay [4]. Kind of assay: competition ELISA on TeNT, binder biotinylated; competitor SVT08L.
Target sequence in this assay (P04958 2-457 limits assumed, chain 1 of 2): as the sequence (P04958 2-457 limits assumed, chain 1 of 2) above
Target sequence in this assay (P04958 458-1315 limits assumed, chain 2 of 2): as the sequence (P04958 458-1315 limits assumed, chain 2 of 2) above
For assay [5] the target is unchanged. The assay can be described thus: competition ELISA on TeNT, binder biotinylated; competitor SVT06L.
Target sequence in this assay (P04958 2-457 limits assumed, chain 1 of 2): as the sequence (P04958 2-457 limits assumed, chain 1 of 2) above
Target sequence in this assay (P04958 458-1315 limits assumed, chain 2 of 2): as the sequence (P04958 458-1315 limits assumed, chain 2 of 2) above
The target is the same in assay [6]. The assay can be described thus: competition ELISA on TeNT, binder biotinylated; competitor mAb 6E7.
Target sequence in this assay (P04958 2-457 limits assumed, chain 1 of 2): as the sequence (P04958 2-457 limits assumed, chain 1 of 2) above
Target sequence in this assay (P04958 458-1315 limits assumed, chain 2 of 2): as the sequence (P04958 458-1315 limits assumed, chain 2 of 2) above
For assay [7] the target is unchanged. Kind of assay: competition ELISA on TeNT, binder biotinylated; competitor SVT02L.
The target is the same in assay [8]. Kind of assay: GT1b-TeNT inhibition ELISA, unlabelled binder.
Assay [9] deals with T2, recombinant tetanus toxin fragment C (rTTC) (Clostridium tetani, UniProt P04958 865-1315).
T2 sequence: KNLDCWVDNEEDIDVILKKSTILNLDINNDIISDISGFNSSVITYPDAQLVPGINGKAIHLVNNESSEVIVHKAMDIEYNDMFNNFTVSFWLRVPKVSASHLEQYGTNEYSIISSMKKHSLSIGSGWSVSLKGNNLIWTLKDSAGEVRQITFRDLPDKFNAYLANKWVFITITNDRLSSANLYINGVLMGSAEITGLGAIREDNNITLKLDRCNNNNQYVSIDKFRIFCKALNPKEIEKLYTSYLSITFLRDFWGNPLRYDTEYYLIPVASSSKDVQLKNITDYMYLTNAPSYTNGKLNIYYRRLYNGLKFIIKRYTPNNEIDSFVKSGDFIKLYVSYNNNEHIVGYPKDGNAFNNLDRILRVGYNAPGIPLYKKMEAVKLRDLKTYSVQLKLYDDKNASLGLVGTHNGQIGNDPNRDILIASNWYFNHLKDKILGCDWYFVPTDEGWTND
The assay can be described thus: ELISA, directly coated rTTC.

Assay [10] addresses T1, tetanus neurotoxin (TeNT), authentic …. Kind of assay: ELISA, directly coated TeNT.
Assay [11] has as its target T2, recombinant tetanus toxin fragment C …. The assay can be described thus: ELISA, rTTC captured with coated mAb 6E7.
For assay [12], the target named is T1, tetanus neurotoxin (TeNT), authentic …. The assay can be described thus: ELISA, TeNT captured with cAb-TT2, unlabelled binder.
For assay [13] the target is unchanged. The assay can be described thus: ELISA, directly coated TeNT, biotinylated binder.
Assay [14] has the same target. Kind of assay: competition ELISA on TeNT, binder biotinylated; competitor SVT15L.
Assay [15] addresses T2, recombinant tetanus toxin fragment C …. Kind of assay: ELISA, directly coated rTTC, unlabelled binder.
The target in assay [16] is T1, tetanus neurotoxin (TeNT), authentic …. The assay can be described thus: competition ELISA on TeNT, binder biotinylated; competitor SVT34L.
For assay [17] the target is unchanged. The assay can be described thus: competition ELISA on TeNT, binder biotinylated; competitor SVT13L.
The target is the same in assay [18]. Kind of assay: competition ELISA on TeNT, binder biotinylated; competitor SVT15L-3FW4M.
The target is the same in assay [19]. The assay can be described thus: competition ELISA on TeNT, binder biotinylated; competitor SVT03L.
Assay [20] shares this target. Kind of assay: competition ELISA on TeNT, binder biotinylated; competitor SVT16L.
The target is the same in assay [21]. Kind of assay: competition ELISA on TeNT, binder biotinylated; competitor mAb 14F5.
Assay [22] shares this target. The assay can be described thus: competition ELISA on TeNT, binder biotinylated; competitor SVT22L.
Assay [23] has the same target. The assay can be described thus: ELISA, TeNT captured with coated mAb 6E7.
For assay [24] the target is unchanged. Kind of assay: ELISA, directly coated TeNT, unlabelled binder.
For assay [25] the target is unchanged. The assay can be described thus: ELISA, TeNT captured with cAb-TT2, biotinylated binder.
Assay [26] has as its target T3, tetanus neurotoxin (TeNT), authentic tetanus holotoxin (Clostridium tetani, UniProt P04958 2-1315). The assay can be described thus: BLI (Octet Red96): biotinylated TeNT on SA sensor, SDA as analyte. (BLI is a label-free optical method that tracks binding on a fibre tip over time.)
For assay [27], the target named is T3, tetanus neurotoxin (TeNT), authentic …. Kind of assay: cell-based or functional assay.
Target sequence in this assay (P04958 2-457 limits assumed): as the sequence (P04958 2-457 limits assumed, chain 1 of 2) above
Assay [28] shares this target.
Assay [29] has the same target. The assay can be described thus: BLI (Octet Red96); estimate of the footnote with kdis set to 1.0E-07.
Target sequence in this assay (P04958 2-457 limits assumed): as the sequence (P04958 2-457 limits assumed, chain 1 of 2) above
The target is the same in assay [30]. The assay can be described thus: BLI (Octet Red96); avidity (bivalent for TeNT); format for this SDA not told.
Assay [31] shares this target. Kind of assay: BLI (Octet Red96); estimate of the footnote with kdis set to 1.0E-07; avidity.

B1: SVT02L (VHH)
VHH: QVQLQQSGGGSVQAGGSLRLSCVGPQRTFSTYGMGWFRQAPGKEREFVAGINYKGDTTYYADSVKGRFTISRDNAKNTLYLQMDSLKPEDRAVYQCARKGGLGGDYRDAGQYRYWGQGTQVTVSS
For the molecule B1, the “% inhibition of binding” value in [1] was found to be 19%; in assay [2], 19%; in assay [4], 16%; in assay [5] it was 2%; in [6], 8%; in assay [7], 96%. Also, the “% inhibition of binding” value was 6% in assay [14]; -16% in assay [16]; 21% in assay [17]; 12% in assay [18]; 9% in assay [19]; 26% in [20]. Besides, the “% inhibition of binding” value in assay [21] came out at 97%; in [22] it was 3%. In addition, the “concentration giving A450 of 0.59” value in assay [3] was above 1 µg/mL. In addition, the “minimal absorbance at 450 nm” value in [8] was found to be 0.576. In addition, the binding result in assay [9] is recorded as “no binding (tested: A450 above 0.2 counts as binding)”. Also, the “absorbance at 450 nm” value in assay [10] was determined as 0.062; in assay [11] it was 0.062; in assay [23] it was 1.19. Moreover, the “EC resulting in A450 0.15” value in [12] turned out to be 36 ng/mL. In addition, the “maximal absorbance at 450 nm” value in assay [12] was found to be 0.196; in assay [13], 0.191; in [15] it was 0.057; in [24] it was 0.077; in [25], 0.53. Further, the “EC resulting in A450 0.4” value in assay [13] was above 1000 ng/mL. In addition, the “EC resulting in A450 0.2” value in assay [24] was above 1000 ng/mL; in assay [25] it was 11 ng/mL.

B2: SVT03L (VHH)
VHH: QVQLQQSGGGSVQTGDSLTLSCTASGGSLNSYFVGWFRQSGGKEREFVSVIARTGRSTSYADSVKGRFTISRDNAANTVFLTMNNLRPDDTAIYYCAAVGRPGVLHLTQSYDYWGQGTQVTVSS
Take B2: in assay [26], the koff was below 1e-07 s⁻¹ and the kon was determined as 5.65e+06 M⁻¹ s⁻¹. In assay [27], the Endpoint dilution factor is below 1 and the “SDA concentration providing full protection” value was above 1000 nM. In assay [28], this molecule had a Kd below 1 pM. The Kd in assay [29] is around 0.0177 pM.

B3: SVT03L (VHH)
VHH: B2 VHH
As for B3, the “% inhibition of binding” value in assay [1] is -26%; in assay [2] it was 17%; in assay [4] it was 10%; in assay [5], 10%; in assay [6], -12%; in assay [7] it was 10%. For the same molecule, the “% inhibition of binding” value is 12% in assay [14]; -4% in assay [16]; 23% in [17]; 10% in [18]; 97% in assay [19]; 18% in assay [20]. Further, the results for the “% inhibition of binding” value in assay [21] and in [22] were -8% and 10%, respectively. Moreover, the “concentration giving A450 of 0.59” value in assay [3] is above 1 µg/mL. Moreover, in assay [8], the “minimal absorbance at 450 nm” value came to 0.903. The binding result in assay [9] is on record as “no binding (tested: A450 above 0.2 counts as binding)”. Moreover, the “absorbance at 450 nm” value in assay [10] stood at 0.331; in [11], 0.061; in [23] it was 1.32. Further, in assay [12], the “EC resulting in A450 0.15” value came out at 1.9 ng/mL. Further, the “maximal absorbance at 450 nm” value in assay [12] stood at 0.304; in assay [13] it was 0.233; in [15], 0.053; in [24], 0.104; in assay [25] it was 0.493. For the same molecule, the “EC resulting in A450 0.4” value in assay [13] is above 1000 ng/mL. The entries for the “EC resulting in A450 0.2” value in [24] and in assay [25] were above 1000 ng/mL and 2.8 ng/mL, respectively.

B4: SVT06-GS3-SVT15-3FW4M-GS2-SVG06M4-H6 (bispecific antibody)
chain: QVQLQESGGGSVQAGGSLRLSCTASELSYDDYTIAWFRRAAGEGRVEDGEGVASITKSYDRAYDNKINYGHSVKGRFTISRDNAKNTVYLQMTDLLPSDTAVYYCALDITPPGGVGASLTEGFLFDYWGQGTQVTVSSGGGGSGGGGSGGGGSQVQLQESGGGLVQTGGSLRLSCRASGRAFANYHFGWFRQAPGKDREFVASISWKGGSTYYANFALGRFTSSVDRAESSVYLQMSGLTPEDTATYYCAAHDGGDWNYHTGMDYWGQGTQVTVSSGGGGSGGGSEVQLVESGGALVQPGGSLRLSCAASGFPFSAYDMTWVRQAPGQGLEWVSTIHKSGGITTYADSVKGRFTISRDNAKNTLYLQMNNLESEDTAVYYCAKALRAHNSDYVGRNALGSWGQGTQVTVSSHHHHHH
Turning to B4, the figures for the Kd in assay [28] and in assay [31] were below 1 pM and around 1.45 pM, respectively. Also, the off-rate (koff) in [30] is below 1e-07 s⁻¹. This molecule also registered an association rate constant (kon) in assay [30] of 69100 M⁻¹ s⁻¹.

As usually defined, the koff is a measure of how fast the partners let go of each other. Low readings indicate slow dissociation, high ones fast dissociation. In general, kon refers to a measure of how fast the partners come together. A higher kon goes with fast association.
